The record followed here is IntAct's records for PubMed 19468302.

B1: Rac GTPase-activating protein 1 (Homo sapiens), Q9H0H5 (parent)
chain: MDTMMLNVRNLFEQLVRRVEILSEGNEVQFIQLAKDFEDFRKKWQRTDHELGKYKDLLMKAETERSALDVKLKHARNQVDVEIKRRQRAEADCEKLERQIQLIREMLMCDTSGSIQLSEEQKSALAFLNRGQPSSSNAGNKRLSTIDESGSILSDISFDKTDESLDWDSSLVKTFKLKKREKRRSTSRQFVDGPPGPVKKTRSIGSAVDQGNESIVAKTTVTVPNDGGPIEAVSTIETVPYWTRSRRKTGTLQPWNSDSTLNSRQLEPRTETDSVGTPQSNGGMRLHDFVSKTVIKPESCVPCGKRIKFGKLSLKCRDCRVVSHPECRDRCPLPCIPTLIGTPVKIGEGMLADFVSQTSPMIPSIVVHCVNEIEQRGLTETGLYRISGCDRTVKELKEKFLRVKTVPLLSKVDDIHAICSLLKDFLRNLKEPLLTFRLNRAFMEAAEITDEDNSIAAMYQAVGELPQANRDTLAFLMIHLQRVAQSPHTKMDVANLAKVFGPTIVAHAVPNPDPVTMLQDIKRQPKVVERLLSLPLEYWSQFMMVEQENIDPLHVIENSNAFSTPQTPDIKVSLLGPVTTPEHQLLKTPSSSSLSQRVRSTLTKNTPRFGSKSKSATNLGRQGNFFASPMLK
partner: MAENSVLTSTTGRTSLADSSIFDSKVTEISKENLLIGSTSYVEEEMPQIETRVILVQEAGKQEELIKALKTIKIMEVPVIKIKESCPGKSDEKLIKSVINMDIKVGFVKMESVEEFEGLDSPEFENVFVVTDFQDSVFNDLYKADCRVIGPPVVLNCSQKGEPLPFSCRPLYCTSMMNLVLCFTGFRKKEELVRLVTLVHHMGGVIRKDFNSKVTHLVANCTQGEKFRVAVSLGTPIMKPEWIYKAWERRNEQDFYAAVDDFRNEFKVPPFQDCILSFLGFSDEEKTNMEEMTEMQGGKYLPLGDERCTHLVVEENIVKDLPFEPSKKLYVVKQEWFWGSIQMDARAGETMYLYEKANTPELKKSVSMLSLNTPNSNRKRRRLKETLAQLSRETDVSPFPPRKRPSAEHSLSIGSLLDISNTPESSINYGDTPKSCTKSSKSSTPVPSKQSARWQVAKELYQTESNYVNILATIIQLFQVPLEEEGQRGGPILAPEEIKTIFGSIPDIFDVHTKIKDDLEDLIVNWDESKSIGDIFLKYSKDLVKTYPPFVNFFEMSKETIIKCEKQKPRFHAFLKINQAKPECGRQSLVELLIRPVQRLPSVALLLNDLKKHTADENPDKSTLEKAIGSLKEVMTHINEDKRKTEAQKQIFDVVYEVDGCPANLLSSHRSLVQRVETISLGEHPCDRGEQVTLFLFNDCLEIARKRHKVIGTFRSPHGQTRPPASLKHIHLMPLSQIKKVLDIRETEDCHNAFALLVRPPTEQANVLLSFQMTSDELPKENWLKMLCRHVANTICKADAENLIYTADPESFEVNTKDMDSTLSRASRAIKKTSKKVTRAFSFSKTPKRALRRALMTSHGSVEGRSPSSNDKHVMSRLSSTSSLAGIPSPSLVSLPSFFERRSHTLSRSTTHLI
B2: Rac GTPase-activating protein 1 (Homo sapiens), Q9H0H5 (parent)
chain: B1 chain

The variants in the first experiment derive from B1. The note with it: with ect2_human ECT2, Q9H8V3.
As to S157A, the “effect of a mutation on the interaction” value is “decreasing interaction”.

Consider S157A;S164A;S170A, for which the “effect of a mutation on the interaction” value is reported as “disrupting interaction”.

For the variant S157A;S164A;S170A;S214A;T260A, the “effect of a mutation on the interaction” value is reported as “decreasing interaction strength”.

The next experiment covers variants of B2. To be noted: with plk1_human PLK1, P53350.
Chain of plk1_human PLK1, P53350 (P53350 whole entry): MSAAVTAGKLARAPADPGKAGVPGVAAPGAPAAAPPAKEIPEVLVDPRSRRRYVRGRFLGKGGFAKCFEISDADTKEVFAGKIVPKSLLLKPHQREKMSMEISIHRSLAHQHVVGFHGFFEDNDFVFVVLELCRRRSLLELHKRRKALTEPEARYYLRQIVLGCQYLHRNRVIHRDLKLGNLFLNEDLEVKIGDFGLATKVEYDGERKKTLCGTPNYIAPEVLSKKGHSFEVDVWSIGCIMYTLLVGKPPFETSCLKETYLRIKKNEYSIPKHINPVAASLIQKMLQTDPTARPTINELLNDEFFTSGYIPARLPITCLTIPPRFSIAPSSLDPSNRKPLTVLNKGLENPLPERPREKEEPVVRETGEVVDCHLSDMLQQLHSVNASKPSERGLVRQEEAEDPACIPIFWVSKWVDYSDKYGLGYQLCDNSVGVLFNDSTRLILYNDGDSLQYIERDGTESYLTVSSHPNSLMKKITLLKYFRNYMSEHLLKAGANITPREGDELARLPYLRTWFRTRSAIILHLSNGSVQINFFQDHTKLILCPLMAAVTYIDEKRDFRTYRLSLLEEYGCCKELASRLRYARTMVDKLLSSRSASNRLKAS
Consider S157A;S164A;S170A;S214A;T260A, for which the “effect of a mutation on the interaction” value is “decreasing interaction strength”.
